US20070148774A1 (MEDICAL RESEARCH COUNCIL, published 2007)

Experiments:
hen egg-white lysozyme = molecular target: T1, hen egg-white lysozyme (hen, UniProt P00698 19-147); experiment: phage ELISA on plates coated with HEL; signal on BSA subtracted
T1 construct: also called HEL; hen egg lysozyme

[1] = molecular target: T2, turkey egg-white lysozyme (turkey, UniProt P00703 19-147); experiment: phage ELISA on plates coated with TEL; signal on BSA subtracted
T2 construct: also called turkey egg lysozyme; turkey lysozyme
T2 sequence (P00703 19-147): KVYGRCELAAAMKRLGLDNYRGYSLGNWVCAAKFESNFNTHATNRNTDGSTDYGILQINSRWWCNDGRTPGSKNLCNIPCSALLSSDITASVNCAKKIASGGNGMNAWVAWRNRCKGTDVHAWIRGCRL

bovine serum albumin [2] = molecular target: T3, bovine serum albumin (bovine, UniProt P02769 25-607); experiment: phage ELISA (FIG. 51, clone 3)
T3 construct: also called BSA
T3 sequence (P02769 25-607 limits assumed): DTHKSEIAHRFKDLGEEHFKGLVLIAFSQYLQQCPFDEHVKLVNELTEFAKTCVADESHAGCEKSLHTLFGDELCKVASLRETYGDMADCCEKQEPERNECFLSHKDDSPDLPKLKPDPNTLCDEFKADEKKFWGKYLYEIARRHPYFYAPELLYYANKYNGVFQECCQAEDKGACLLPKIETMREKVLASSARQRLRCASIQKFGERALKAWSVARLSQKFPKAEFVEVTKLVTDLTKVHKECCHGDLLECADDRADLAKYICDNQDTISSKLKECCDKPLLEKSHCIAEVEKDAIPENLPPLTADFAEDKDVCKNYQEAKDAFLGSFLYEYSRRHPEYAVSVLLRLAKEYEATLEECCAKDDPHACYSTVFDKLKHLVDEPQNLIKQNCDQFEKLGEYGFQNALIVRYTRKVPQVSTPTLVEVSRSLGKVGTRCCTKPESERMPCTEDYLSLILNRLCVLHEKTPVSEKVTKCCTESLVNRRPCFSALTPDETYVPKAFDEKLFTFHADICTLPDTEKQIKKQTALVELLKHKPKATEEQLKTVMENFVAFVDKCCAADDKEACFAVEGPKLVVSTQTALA

[3] = molecular target: T2, turkey egg-white lysozyme; experiment: phage ELISA on turkey egg white lysozyme after 4 rounds of selection
bovine serum albumin [4] = molecular target: T3, bovine serum albumin; experiment: phage ELISA (FIG. 51, clone 9)
human lysozyme = molecular target: T4, human lysozyme (human, UniProt P61626 19-148); experiment: phage ELISA, antigen coated at 1 mg/ml, sheep anti-M13 serum
T4 construct: also called HUL
T4 sequence (looked up): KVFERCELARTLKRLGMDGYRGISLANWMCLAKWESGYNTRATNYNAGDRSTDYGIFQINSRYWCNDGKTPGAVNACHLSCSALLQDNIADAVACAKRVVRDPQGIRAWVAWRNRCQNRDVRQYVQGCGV
Method: Before use, this solution was removed, the plate rinsed several times in PBS and incubated with 200 ul of 2% milk powder/PBS for 1 hour. After rinsing several times with PBS, 100 ul of the test samples were added and incubated for 1 hour. Plates were washed (3 rinses in 0.05% Tween 20/PBS followed by 3 rinses in PBS alone). Bound phage antibodies were detected by adding 200 ul/well of a 1/1000 dilution of sheep anti-M13 polyclonal antiserum (gift from G. Winter, although an equivalent antibody can be readily made by one skilled in the art using standard methodologies) in 2% milk powder/PBS and incubating for 1 hour. After washing as above, plates were incubated with biotinylated anti-sheep antibody (Amersham International) for 30 minutes. Plates were washed as above, and incubated with streptavidin-horseradish peroxidase complex (Amersham International).
(§1) 2×10¹⁰ phage transducing units were added to the antigen coated plates in phosphate buffered saline (PBS) containing 2% skimmed milk powder (MPBS). Plates were washed between each step with three rinses of 0.5% Tween-20 in PBS followed by three rinses of PBS.

bovine serum albumin [5] = molecular target: T3, bovine serum albumin; experiment: phage ELISA, antigens coated at 200 µg/ml, average absorbance of duplicates after 10 minutes
Method: as §1
ELISA plates were coated at 37° C. in 50 mM NaHCO3 at a protein concentration of 200 μg/ml.

bovine serum albumin [6] = molecular target: T3, bovine serum albumin; experiment: phage ELISA (FIG. 51, clone 1)

T1 sequence (P00698 19-147 limits assumed): as the sequence (P00703 19-147) above, with Y3F, L15H, H41Q, K73R, A99V, G101D, H121Q counted along it

B1: clone MF1 (clone 3 of FIG. 51): scFv of D1.3 VH with a light chain selected from the VLK library of an unimmunised mouse (scFv)
scFv: QVQLQESGPGLVAPSQSLSITCTVSGFSLTGYGVNWVRQPPGKGLEWLGMIWGDGNTDYNSALKSRLSISKDNSKSQVFLKMNSLHTDDTARYYCARERDYRLDYWGQGTTVTVSSGGGGSGGGGSGGGGSDIELTQSPSSLSASLGERVSLTCRASQDIGSSLNWLQQEPDGTIKRLIYATSSLDSGVPKRFSGSRSGSDYSLTISSLESEDFVDYYCLQYASSPWTFGGGTKLELKR
notes: also called M1F; D1.3 M1F; not shown: fd gene III protein (g3p), the phage display partner fused after the scFv through the NotI AAA junction
Hen egg-white lysozyme
  binding result: binds
[1]
  binding result: binds
Bovine serum albumin [2]
  binding result: no binding

B2: lysozyme binder scFv from the unimmunized human library (VH13.1 / VL13.1), on phage (scFv, V domains shown)
VH: QVQLVQSGAEVKKPGQSLMISCQGSGYSFSNYWIGWVRQMPGKGLEWMGIIYPGDSDTRYSPSFQGQVTISADKSISTAYLHWSSLKASDTALYYCARLVGGTPAYWGQGT
VL: HVILTQPASVSGSPGQSITISCTGSSRDVGGYNYVSWYQHHPGKAPKLLISEVTNRPSGVSNRFSGSKSGNTASLTISGLQAEDEADYFCASYTSSKTYVFGG
notes: scFv with (Gly4Ser)3 linker on pHEN1 phagemid particles
[3]
  binding result: binds

B3: clone M21 (clone 9 of FIG. 51): scFv of D1.3 VH with a light chain selected from the VLK library of an unimmunised mouse (scFv)
scFv: QVQLQESGPGLVAPSQSLSITCTVSGFSLTGYGVNWVRQPPGKGLEWLGMIWGDGNTDYNSALKSRLSISKDNSKSQVFLKMNSLHTDDTARYYCARERDYRLDYWGQGTTVTVSSGGGGSGGGGSGGGGSDIELTQSPALMAASPGEKVTITCSVSSSISSSNLHWYQQKSETSPKPWIYGTSNLASGVPVRFSGSGSGTSYSLTISSMEAEDAATYYCQQWSSYPLTFGAGTKLEIKR
notes: not shown: fd gene III protein (g3p), the phage display partner fused after the scFv through the NotI AAA junction
Bovine serum albumin [4]
  binding result: no binding
Hen egg-white lysozyme
  binding result: binds
[1]
  binding result: binds

B4: fdTscFvD1.3 (phage antibody displaying the single chain Fv of anti-lysozyme antibody D1.3) (scFv, not shown: large carriers)
scFv: QVQLQESGPGLVAPSQSLSITCTVSGFSLTGYGVNWVRQPPGKGLEWLGMIWGDGNTDYNSALKSRLSISKDNSKSQVFLKMNSLHTDDTARYYCARERDYRLDYWGQGTTVTVSSGGGGSGGGGSGGGGSDIELTQSPASLSASVGETVTITCRASGNIHNYLAWYQQKQGKSPQLLVYYTTTLADGVPSRFSGSGSGTQYSLKINSLQPEDFGSYYCQHFWSTPRTFGGGTKLEIK
modifications: scFv displayed on fd phage as a fusion near the N-terminus of g3p
notes: also called pAb D1.3; pAb (D1.3)
Human lysozyme
  binding result: no binding
Bovine serum albumin [5]
  binding result: no binding (tested: one amount, as in example 6)

B5: fdCAT2 scFvD1.3 phage (scFv, not shown: large carriers)
scFv: B4 scFv
modifications: scFv displayed on fd phage as an N-terminal fusion to g3p
notes: also called original D1.3 scFv
Bovine serum albumin [6]
  binding result: no binding
